This note sets out measurements from the RNAGym collection of RNA variant scans (doi:10.1093/molbev/msab373).

B1: Azoarcus group I ribozyme (parent)
chain: GUGCCUUGCGCCGGGAAACCACGCAAGGGAUGGUGUCAAAUUCGGCGAAACCUAAGCGCCCGCCCGGGCGUAUGGCAACGCCGAGCCAAGCUUCGGCGCCUGCGCCGAUGAAGGUGUAGAGACUAGACGGCACCCACCUAAGGCAAACGCUAUGGUGAAGGCAUAGUCCAGGGAGUGGCGAAAGUCACACAAACCGG

In this series the parent is B1. The series is described as follows: reverse-splicing fitness (ratio to wild type); higher = more active; in vitro selection; Mg2+ level not given. Put shortly:
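An in vitro group I ribozyme library with randomized positions was T7-transcribed and gel-purified. In triplicate, 10 pmol RNA in EPPS pH 7.5 was reacted with 50 pmoles of a 30-nt RNA substrate for 1 h at 37 °C across several added MgCl2 levels (1–48 mM), then stopped with EDTA. Products were reverse transcribed from a substrate-complementary primer, PCR-amplified and sequenced (HiSeq 4000). Fitness is a variant's read proportion after selection over that before, normalised to wild type.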
As to A120C A145C C150U C169U U176G, the reverse-splicing fitness came to 0.00874. On to C82A A111C A120C A145C C150G, for which the reverse-splicing fitness is 0.00873. The value for C82A A111U A120C A145U C150A C169U U176A was 0.0174. Regarding A120G A145G C150U C169A U176A, the reverse-splicing fitness was found to be 0.0867. For C82A A111C A145C C150U C169A U176A the value was 0.0127; for C82A A120U C150U C169G, 0.00546.

C82A A120U C169G: the reverse-splicing fitness worked out at 0.00529. For C82U C150G C169U U176A, the reverse-splicing fitness amounted to 0.0076. C82A A111G A145C C150U C169A U176A: the reverse-splicing fitness came to 0.0133.

With C82A A111G C150G U176G, the reverse-splicing fitness turned out to be 0.004.

With A145U C150A U176G, the reverse-splicing fitness amounted to 0.177. Turning to C82U A111G C150U C169G U176A, the reverse-splicing fitness worked out at 0.0191. Turning to C82G A111C A145U C150G C169U U176C, the reverse-splicing fitness was 0.0123. A120C A145C C169U U176G: the reverse-splicing fitness came out at 0.0155. For C82A A111C A120G A145G C150G C169A U176G the value was 0.00771. In the case of C82U A111U A120C A145G C150U C169U U176C, the reverse-splicing fitness stood at 0.0155. Turning to C82U A120G A145C C169G, the reverse-splicing fitness turned out to be 0.0218. With C82G A111G A120C A145C C150G C169U U176A, the reverse-splicing fitness was determined as 0.00714. Take C82G A120U C169U U176A: the reverse-splicing fitness turned out to be 0.00406. For C82G A111C A120G A145U C169A U176G, the reverse-splicing fitness was 0.00439. Regarding A111G A120C U176A, the reverse-splicing fitness was found to be 0.47. Consider C82A A111U A120C A145C C150G C169G U176G, for which the reverse-splicing fitness is 0.0065. As to A111G A120U A145G C150G C169U U176A, the reverse-splicing fitness worked out at 0.00497. Turning to A111G A120U A145G C150A U176A, the reverse-splicing fitness was 0.0506. Consider C82U A111U A120G A145C C150A, for which the reverse-splicing fitness was 0.0064. As for C82G A111C A120G A145C C150A C169U U176A, the reverse-splicing fitness came to 0.0151.

A111U A120U A145G C150U C169U U176A: the reverse-splicing fitness turned out to be 0.0115. With C82A A111G A120G A145G C150G C169A, the reverse-splicing fitness came out at 0.00897. As to C82A A120U A145G, the reverse-splicing fitness was determined as 0.142. On to A111U A120U C150U C169U, for which the reverse-splicing fitness came out at 0.0369.

As for C82A A111G A120G A145U C150A U176A, the reverse-splicing fitness turned out to be 0.0117. Turning to C82U A111G A120C A145C C150G C169G, the reverse-splicing fitness amounted to 0.00679. A111G A145U U176A: the reverse-splicing fitness was found to be 0.755.

With C82A A111U A120G A145U C150G C169U U176G, the reverse-splicing fitness is 0.00545. For the variant C82A A111G A120C C150U C169A, the reverse-splicing fitness stood at 0.00986. Regarding C82U A111G A120C A145C C150U C169U, the reverse-splicing fitness was 0.00927. With C82G A111U C169G U176A, the reverse-splicing fitness came to 0.0157. On to A111U A145U C150A C169A U176C, for which the reverse-splicing fitness came out at 0.00995. C82G A120C A145C C169U U176C: the reverse-splicing fitness was found to be 0.0142.

Turning to C82A A111U A145C C150A, the reverse-splicing fitness is 0.0156. For C82U A111C A120C A145G C169A U176A the value was 0.0198; for C82G A111U A120C A145C C150G C169A, 0.0104; for A120U A145U C169U, 0.261.

Consider C82G A111G A120U C150A C169A U176G, for which the reverse-splicing fitness came out at 0.00223. The value for C82G A120C C150G U176G was 0.00413; that for C82G A111C A145C C150U C169G U176A was 0.0245; that for C82G A111G A145U C169G U176A was 0.0136. For the variant A111G A120G C150G C169U U176G, the reverse-splicing fitness came to 0.00593.

C82U A111C A120G A145G C150U C169U U176C: the reverse-splicing fitness was 0.0131. In the case of C82G A111C A120U A145U C150A C169G U176C, the reverse-splicing fitness was determined as 0.00248.

As to C82U A111C C150G U176A, the reverse-splicing fitness amounted to 0.00801. On to C82U A111U A145U C150U C169A U176G, for which the reverse-splicing fitness was determined as 0.00627.

On to C82A A111C A145U C150A C169U U176A, for which the reverse-splicing fitness was found to be 0.0155.

As to C82A A111U A145U C150A, the reverse-splicing fitness is 0.0253.

As for C82U A111G A145C C169A U176G, the reverse-splicing fitness came to 0.00408. Take C82A A111C A120G C150G C169A U176A: the reverse-splicing fitness was found to be 0.0102.

With C82U A111U A145U C150G U176G, the reverse-splicing fitness amounted to 0.00449. The value for C82U A120C C150G C169G U176G was 0.00432. Turning to A111C A120G A145G C169U U176G, the reverse-splicing fitness worked out at 0.00448.

As for A111C A145G C150G C169G, the reverse-splicing fitness was 0.0116.

For A111U A120G A145U C150G C169A U176G, the reverse-splicing fitness amounted to 0.00496.

Consider C82G A111C A120G C150G C169U U176A, for which the reverse-splicing fitness came to 0.0081. Regarding C82A A145G C169U U176G, the reverse-splicing fitness worked out at 0.00459.

Turning to C82A A111C A120G A145C C150G C169A, the reverse-splicing fitness was 0.00757. On to C82U A120G A145G U176A, for which the reverse-splicing fitness came out at 0.0128. For A111G A120C C150G C169G U176C the value was 0.00358.

For the variant C82U A111U A120C A145U C150U U176C, the reverse-splicing fitness stood at 0.0147. For C82G A120U A145G C150A C169A U176A the value was 0.00645; for C82A A111U A120C A145U C169G, 0.0114; for C82A A111U A145U C150U C169G, 0.00969. Consider C82A A120G A145C C169A U176G, for which the reverse-splicing fitness is 0.00327. Turning to A111C A120G A145C C150U C169U U176A, the reverse-splicing fitness was 0.0247. For C82A A111C C150G C169A U176A, the reverse-splicing fitness amounted to 0.00958.

In the case of C82U A111U A120G A145C C150U C169U U176G, the reverse-splicing fitness was 0.00401. For the variant C82A A111C A120C A145C C150U C169G U176A, the reverse-splicing fitness turned out to be 0.0269. As for C82A A111U A120G A145C C150G C169A U176C, the reverse-splicing fitness came to 0.00639. Turning to C82U A120U C150A C169A U176A, the reverse-splicing fitness was 0.00373. Regarding A111G A120U A145U C150A, the reverse-splicing fitness stood at 0.0903. C82A A111C A145G C150G C169A: the reverse-splicing fitness worked out at 0.00852. For C82G A111U A120G A145C C169G U176A, the reverse-splicing fitness came to 0.0245. On to C82A A111U A120C A145G C150U C169U U176C, for which the reverse-splicing fitness was 0.0148. Regarding C82U A120G A145U C150U U176C, the reverse-splicing fitness is 0.0143. For the variant C82G A111G A120G C169G U176G, the reverse-splicing fitness stood at 0.00487. For A111G A145U C150U C169U U176G, the reverse-splicing fitness turned out to be 0.00691.
